The results in this text go back to the Human Domainome abundance scans (Beltran et al. 2025).

B1: E3 ubiquitin-protein ligase TRIM36, residues 208 to 252; numbered along this chain, Q9NQ86 (parent)
chain: KILMCPEHETERINMYCELCRRPVCHLCKLGGNHANHRVTTMSSA

± gives the uncertainty stated by the source.

Variants of B1 are the subject of this data set. The data set is described as follows: abundance fitness (aPCA) (normalised: wild type 0, dead -1); higher = more abundant; growth selection in yeast, the domain comes from the species named. Conditions: Homo sapiens.
Consider KILMCPEHETERILMYCELCRRPVCHLCKLGGNHANHRVTTMSSA [N14L], for which the abundance fitness stood at 0.036 ± 0.083.
Next, KILMCPEHETERIRMYCELCRRPVCHLCKLGGNHANHRVTTMSSA [N14R]: -0.149 ± 0.071.
Next, KILMCPEHETERIQMYCELCRRPVCHLCKLGGNHANHRVTTMSSA [N14Q]: 0.018 ± 0.06; KILMWPEHETERINMYCELCRRPVCHLCKLGGNHANHRVTTMSSA [C5W]: -1.41 ± 0.15; KILMYPEHETERINMYCELCRRPVCHLCKLGGNHANHRVTTMSSA [C5Y]: -1 ± 0.1.
Next, KILMRPEHETERINMYCELCRRPVCHLCKLGGNHANHRVTTMSSA [C5R]: -0.976 ± 0.062; KILMCPEHETERINMACELCRRPVCHLCKLGGNHANHRVTTMSSA [Y16A]: -0.264 ± 0.11.
With KILMCPEHETERINMVCELCRRPVCHLCKLGGNHANHRVTTMSSA [Y16V], the abundance fitness is -0.437 ± 0.28.
With KILMCPEHETERINMPCELCRRPVCHLCKLGGNHANHRVTTMSSA [Y16P] the figure was -0.111 ± 0.37; with KILMCPEHETERINMTCELCRRPVCHLCKLGGNHANHRVTTMSSA [Y16T], 0.284 ± 0.15.
With KILMCPEHETERINMWCELCRRPVCHLCKLGGNHANHRVTTMSSA [Y16W], the abundance fitness was -0.04 ± 0.1.
KILMCPEHETERINMYCELCRRPVCHLCKLGGNHAGHRVTTMSSA [N36G]: the abundance fitness was -0.059 ± 0.053.
For KILMCPEHETERINMYCELCRRPVCHLCKLGGNHAVHRVTTMSSA [N36V], the abundance fitness was -0.202 ± 0.052.
Take KILMCPEHETERINMYCELCRRPVCHLCKLGGNHANHRVKTMSSA [T40K]: the abundance fitness is -0.112 ± 0.08.
Take KILMCPEHETERINMYCELCRRPVCHLCKLGGNHANHRVDTMSSA [T40D]: the abundance fitness was found to be 0.039 ± 0.074.
With KILMCPEHETERINMYAELCRRPVCHLCKLGGNHANHRVTTMSSA [C17A] the figure was -1.01 ± 0.17; with KILMCPEHETERINMYGELCRRPVCHLCKLGGNHANHRVTTMSSA [C17G], -0.733 ± 0.088; with KILMCPEHETERINMYHELCRRPVCHLCKLGGNHANHRVTTMSSA [C17H], -0.656 ± 0.47.
Next, KILMCPEHETERINMYEELCRRPVCHLCKLGGNHANHRVTTMSSA [C17E]: -0.763 ± 0.079; KILMCPEHETERINMYCELCRRPVCHLCKLGGNHANHRVTTMSEA [S44E]: 0.086 ± 0.057; KILMCPEHETERINMYCESCRRPVCHLCKLGGNHANHRVTTMSSA [L19S]: 0.069 ± 0.058.
With KILMCPEHETERINMYCELCRRPVCHLCKLGGNEANHRVTTMSSA [H34E] the figure was -0.272 ± 0.055; with KILMCPEHETERINMYCELCRRPVCHLCKLGGNNANHRVTTMSSA [H34N], -0.46 ± 0.084; with KILMCPEHETERINMYCELCRRPVCHLCKLGGNIANHRVTTMSSA [H34I], -0.738 ± 0.15.
For KILMCPEHETERINMYCELCRRPVCHLCKLGGNHANHRVTTPSSA [M42P], the abundance fitness was 0.087 ± 0.068.
For the variant KILMCPELETERINMYCELCRRPVCHLCKLGGNHANHRVTTMSSA [H8L], the abundance fitness was -1.24 ± 0.08.
Next, KILMCPEYETERINMYCELCRRPVCHLCKLGGNHANHRVTTMSSA [H8Y]: -0.983 ± 0.15.
In the case of KILMCPEHETERINMYCELCRRPVCHLAKLGGNHANHRVTTMSSA [C28A], the abundance fitness is -0.672 ± 0.079.
With KILMCPEHETERINMYCELCRRPVCHLIKLGGNHANHRVTTMSSA [C28I] the figure was -0.613 ± 0.09; with KILMCPEHETERINMYCELCRRPVCHLPKLGGNHANHRVTTMSSA [C28P], -0.579 ± 0.088; with KILMCPEHETERINMYCELCRRPVCHLCKLGGNHANHRVTTMKSA [S43K], -0.145 ± 0.065.
With KILMCPEHETERINMYCELCRRPVCHLCKLGGNHANHRVTTMTSA [S43T] the figure was -0.093 ± 0.054; with KILMCPEHETERINMYCELCRRPVCHLCKLGGNHANHRVTTMDSA [S43D], -0.063 ± 0.093.
Next, KILMCPEHETERINMYCELCRRQVCHLCKLGGNHANHRVTTMSSA [P23Q]: -0.1 ± 0.071; KILMCPEHETERINMYCELCRREVCHLCKLGGNHANHRVTTMSSA [P23E]: 0.037 ± 0.063.
On to KILMCPGHETERINMYCELCRRPVCHLCKLGGNHANHRVTTMSSA [E7G], for which the abundance fitness was -0.292 ± 0.055.
Consider KILMCPEHETERINMYCELCRRPVCHLCKLGGNHANHRYTTMSSA [V39Y], for which the abundance fitness was -0.184 ± 0.1.
With KILMCPEHETERINMYCELCRRPVCHLCKLGGNHANHRETTMSSA [V39E] the figure was 0.037 ± 0.053.
With KILMCPEHCTERINMYCELCRRPVCHLCKLGGNHANHRVTTMSSA [E9C] the figure was -0.074 ± 0.061; with KILMCPEHHTERINMYCELCRRPVCHLCKLGGNHANHRVTTMSSA [E9H], -0.069 ± 0.099; with KILMCPEHTTERINMYCELCRRPVCHLCKLGGNHANHRVTTMSSA [E9T], 0.053 ± 0.053.
Next, KILMCPEHVTERINMYCELCRRPVCHLCKLGGNHANHRVTTMSSA [E9V]: -0.051 ± 0.052.
As to KILMCPEHEYERINMYCELCRRPVCHLCKLGGNHANHRVTTMSSA [T10Y], the abundance fitness is -0.171 ± 0.082.
Next, KILMCPEHEGERINMYCELCRRPVCHLCKLGGNHANHRVTTMSSA [T10G]: -0.071 ± 0.045; KILMCPEHEMERINMYCELCRRPVCHLCKLGGNHANHRVTTMSSA [T10M]: -0.038 ± 0.069.
Next, KILRCPEHETERINMYCELCRRPVCHLCKLGGNHANHRVTTMSSA [M4R]: -0.165 ± 0.044; KILGCPEHETERINMYCELCRRPVCHLCKLGGNHANHRVTTMSSA [M4G]: -0.238 ± 0.046.
With KILWCPEHETERINMYCELCRRPVCHLCKLGGNHANHRVTTMSSA [M4W] the figure was -0.191 ± 0.062; with KILMCPEHETERINMYCELCRRPVNHLCKLGGNHANHRVTTMSSA [C25N], -0.5 ± 0.21; with KILMCPEHETERINMYCELCRRPVEHLCKLGGNHANHRVTTMSSA [C25E], -0.48 ± 0.072.
On to KILMCPEHETERINMYCELCRRPVGHLCKLGGNHANHRVTTMSSA [C25G], for which the abundance fitness was -0.556 ± 0.053.
Next, KILMCPEHETERINMYCELCRRPVWHLCKLGGNHANHRVTTMSSA [C25W]: -1.1 ± 0.091.
Take KILMCPEHETERINMYCELCRRPVCHLCKLGGNHANHFVTTMSSA [R38F]: the abundance fitness was -0.121 ± 0.1.
Next, KILMCPEHETERINMYCELCRRPVCHLCKLGGNHANHPVTTMSSA [R38P]: -0.011 ± 0.058; KILMCPEHETERINMYCELCRRPVCHLCKKGGNHANHRVTTMSSA [L30K]: 0.101 ± 0.065; KILMCPEHETERINMYCELCRRPVCHLCKLGHNHANHRVTTMSSA [G32H]: -0.267 ± 0.11.
In the case of KILMCPEHETERINMYCELCRRPVCHLCKLGWNHANHRVTTMSSA [G32W], the abundance fitness is -0.297 ± 0.058.
